{"source": "patent US11168320", "biological_target": "Thrombin (UniProt P00734+P00734)", "assay": "EMSA", "details": "0.1 nM aptamer, thrombin 0.1-12.8 nM; more than half bound at 0.1 nM thrombin", "data": [{"sequence": "NTAGGDTGGGTAGGGTGGTNAGGGWTGATGYGTGGTAGGC [Bivalent aptamer AD]", "values": [{"measurement": "Kd", "result": "< 0.1", "unit": "nM"}]}]}
